Patent US20150376294A1 (RIGSHOSPITALET, published 2015)
Positions count from the first letter of the chain named. Each block holds one binder with its values, some of them ahead of it.

Columns and labels:
[1] = target: T1, human recombinant PAD4 (hrPAD4) (human, UniProt Q9UM07 1-663); assay: indirect ELISA, hrPAD4 coat 50 ng/mL
T1 construct: Recombinant, provided by Ger Pruijn; also called hPAD4; human PAD4

[2] = target: T2, Peptidylarginine Deiminase isolated from rabbit skeletal muscle (rPAD2) (rabbit, UniProt P20717 1-665 (rat entry), limits assumed); assay: western blotting, rPAD2
T2 construct: Bought (Sigma-Aldrich), isolated from rabbit skeletal muscle; also called Rabbit PAD2; rabbit PAD2
T2 chain: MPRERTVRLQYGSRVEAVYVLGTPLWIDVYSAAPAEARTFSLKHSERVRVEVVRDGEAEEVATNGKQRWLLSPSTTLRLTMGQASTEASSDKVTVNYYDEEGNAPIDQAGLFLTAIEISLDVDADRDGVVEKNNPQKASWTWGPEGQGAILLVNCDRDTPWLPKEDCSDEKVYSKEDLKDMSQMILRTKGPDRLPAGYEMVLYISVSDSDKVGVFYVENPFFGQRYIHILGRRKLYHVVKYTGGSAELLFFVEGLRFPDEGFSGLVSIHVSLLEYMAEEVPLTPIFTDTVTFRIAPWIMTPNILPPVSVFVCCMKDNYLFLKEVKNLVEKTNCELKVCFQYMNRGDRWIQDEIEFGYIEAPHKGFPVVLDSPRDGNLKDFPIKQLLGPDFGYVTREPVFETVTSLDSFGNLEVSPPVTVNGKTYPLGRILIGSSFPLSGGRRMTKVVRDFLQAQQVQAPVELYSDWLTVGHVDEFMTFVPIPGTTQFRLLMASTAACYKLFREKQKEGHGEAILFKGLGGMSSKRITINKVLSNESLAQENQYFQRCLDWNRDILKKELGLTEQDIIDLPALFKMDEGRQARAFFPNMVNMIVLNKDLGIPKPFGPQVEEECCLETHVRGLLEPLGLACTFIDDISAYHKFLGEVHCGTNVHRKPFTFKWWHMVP
Protocol: FIG. 2. mAbs (monoclonal antibodies) reacting with rPAD2 in western blotting. Culture supernatants from mAbs #1-30, an irrelevant mAb (A) and no mAb (B) were tested 1:1 in diluting buffer against 1 μg/mL rabbit PAD2-unreduced. Rabbit anti mouse IgG (diluted 1:1000) was added, 1 h/RT. Development was performed in carbazole staining solution. Molecular weight markers (kDa) are indicated in the middle of the blot with Novex® Sharp Pre stained Protein Standard. A 4-12% Bis-Tris zoom gel was used.
(§1) Different samples were loaded in gels (same procedure as SDS-PAGE) along with a pre-stained marker. […] The membrane was blocked in wash buffer and sliced into strips. Antibody culture supernatant (2 mL) was added 1:1 in diluting buffer and incubated 0/N at 4° C. HRP-conjugated rabbit anti mouse IgG was added 1:3000 followed by incubation 1 h/RT. Finally, the strips were washed, incubated 10 min in acetate buffer (50 mM CH3COOH, 33.75 mM NaOH, pH 5.0) and stained in carbazole staining solution (0.04% 3-amino-9-ethylcarbazole and 0.015% H2O2) in acetate buffer. Antibodies with affinity against the target protein were observed as red bands, and the approximate size could be held against the marker loaded on the gel.

[3] = target: N343 (from amino acid 343 to the C-terminus) (human, UniProt Q9Y2J8 343-665); assay: western blotting
Chain of N343 (from amino acid 343 to the C-terminus) (Q9Y2J8 343-665): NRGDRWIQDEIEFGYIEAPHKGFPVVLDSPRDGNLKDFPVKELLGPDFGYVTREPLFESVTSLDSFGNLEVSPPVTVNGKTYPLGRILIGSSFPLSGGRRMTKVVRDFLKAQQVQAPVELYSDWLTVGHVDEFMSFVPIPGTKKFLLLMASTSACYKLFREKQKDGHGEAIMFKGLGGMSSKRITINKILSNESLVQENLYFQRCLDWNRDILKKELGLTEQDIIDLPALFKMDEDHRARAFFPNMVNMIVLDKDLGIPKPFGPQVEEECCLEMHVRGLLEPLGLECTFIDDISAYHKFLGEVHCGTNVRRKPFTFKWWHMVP
Protocol: as §1
(§2) Different splice variants of PAD2 were evaluated by western blotting.

[4] = target: T3, N165 (from amino acid 165 to the C-terminus) (human, UniProt Q9Y2J8 165-665); assay: western blotting
T3 construct: also called N165 splice variant
T3 sequence (Q9Y2J8 165-665): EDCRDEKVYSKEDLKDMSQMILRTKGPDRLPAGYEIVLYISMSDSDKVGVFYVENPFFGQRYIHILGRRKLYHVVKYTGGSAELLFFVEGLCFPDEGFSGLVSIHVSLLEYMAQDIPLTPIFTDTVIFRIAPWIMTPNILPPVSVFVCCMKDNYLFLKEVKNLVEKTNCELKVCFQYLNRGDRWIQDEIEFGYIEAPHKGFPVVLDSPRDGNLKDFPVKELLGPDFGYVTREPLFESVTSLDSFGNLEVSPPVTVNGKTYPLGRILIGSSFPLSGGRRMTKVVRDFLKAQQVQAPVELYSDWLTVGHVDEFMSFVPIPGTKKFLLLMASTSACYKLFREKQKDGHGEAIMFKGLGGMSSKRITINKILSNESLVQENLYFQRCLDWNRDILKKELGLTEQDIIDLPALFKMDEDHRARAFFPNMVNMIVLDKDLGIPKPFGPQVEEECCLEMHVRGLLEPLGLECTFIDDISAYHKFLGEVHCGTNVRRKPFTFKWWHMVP
Protocol: as §1, §2

T1 sequence (Q9UM07 whole entry): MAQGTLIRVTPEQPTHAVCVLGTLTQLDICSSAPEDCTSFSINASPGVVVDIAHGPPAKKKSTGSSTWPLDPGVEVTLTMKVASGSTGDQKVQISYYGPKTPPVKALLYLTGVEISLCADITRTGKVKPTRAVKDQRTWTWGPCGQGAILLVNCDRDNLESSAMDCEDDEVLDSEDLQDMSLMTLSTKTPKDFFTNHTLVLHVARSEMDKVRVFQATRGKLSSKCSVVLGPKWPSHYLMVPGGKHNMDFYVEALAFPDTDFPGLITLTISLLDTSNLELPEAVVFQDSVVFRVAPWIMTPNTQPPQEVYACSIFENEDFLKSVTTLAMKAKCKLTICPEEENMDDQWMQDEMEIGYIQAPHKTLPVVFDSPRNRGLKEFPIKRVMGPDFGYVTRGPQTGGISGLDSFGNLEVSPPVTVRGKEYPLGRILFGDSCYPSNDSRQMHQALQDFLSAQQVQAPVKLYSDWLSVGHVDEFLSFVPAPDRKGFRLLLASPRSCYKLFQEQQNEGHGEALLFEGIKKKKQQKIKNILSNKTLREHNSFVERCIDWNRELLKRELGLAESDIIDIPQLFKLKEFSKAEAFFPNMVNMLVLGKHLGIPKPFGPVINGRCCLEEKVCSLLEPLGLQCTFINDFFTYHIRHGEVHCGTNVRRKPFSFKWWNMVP

binding result [1]: no binding | binding result [2]: binds | binding result [3]: no binding | binding result [4]: no binding
B1: mAb #2 (antibody, V domains shown)
VH: QVQLQQPGAELVRPGASVKLSCKASGYTFTSYWMNWVKQRPGQGLEWIGMIDPSDSESYYNQMFKDKATLTVDKSSSTAYMQLSRLTSEDSAVYYCARKDYYAYGGAMDYWGQGTSVTVSS
VL: QIVLTQSPAILSASLGEEITLTCSANSSARYMHWYQQKSGTSPKLLIYSTSNLASGVPSRFSGSGSGTFYSLTLSSVEAEDAADYYCHQWSGYPTFGGGTKLEIKR
notes: Mouse IgG monoclonal antibody, unknown subtype; raised against rabbit PAD2

binding result [1]: no binding | binding result [3]: no binding
B2: mAb #6 (antibody, V domains shown)
VH: EVQLQQSGPDLVKPGASVKISCKASGYSFTAYYMHWVKQSHGESLEWIGRVNPNNGGSSYNQKFKGKAILTVHKSSNTAYMELRSLTSEDSAVYFCARGDYLPSLGYWGQGTSVTVSS
VL: DIVMTQSQKFMSTSVGDRVSVTCKASQNVDTTVAWYQQKPGQSPKALIYSASYRYSGVPDRFTGSGSGTDFTLTVTNVQSEDLAEYFCQQYDSYPFTFGSGTKLEIK
notes: as for B1

binding result [1]: no binding | binding result [3]: no binding
B3: mAb #34 (antibody, V domains shown)
VH: EVQLQQSGPDLVKPGASVKISCKASGYSFTSYYMHWVKQSHGKSLEWIGRVNPNSGYTTYNQKFKGKAILTVDKSSSTAYMELRSLTSEDSAVYYCARGDYLPSMDYWGHGTSVTVSS
VL: B2 VL with I2F, V21I, D30G, T32N, A46G, V75I, T76S, Y91F, D92N
notes: as for B1
